Biological target: T1, Act1 SEFIR (wild type) (UniProt Q8N7N6 390-531)
T1 sequence: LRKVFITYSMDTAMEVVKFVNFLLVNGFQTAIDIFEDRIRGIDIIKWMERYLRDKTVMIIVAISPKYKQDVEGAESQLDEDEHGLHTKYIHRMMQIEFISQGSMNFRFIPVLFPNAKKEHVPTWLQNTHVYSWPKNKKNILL
Test: competition

B1: Hif1α aptamer (SBE) (structured_RNA)
RNA: UAAUGCUCUUUUUAAUAUGUUCUUUUAAUGCCAGAUCACAGCACAUUCACAGCU
modifications: chemically modified RNA oligo (modification not specified)
  binding result: binds

Reference: publication PMC8996325
